Assays:
[1] = biological target: T1, TNFα (tumour necrosis factor alpha) (UniProt P01375 77-233, limits assumed); experiment: cell-based or functional assay
[2] = biological target: T1, TNFα (tumour necrosis factor alpha); experiment: cell-based or functional assay; remark: listed apart in the source

T1 sequence (P01375 77-233 limits assumed): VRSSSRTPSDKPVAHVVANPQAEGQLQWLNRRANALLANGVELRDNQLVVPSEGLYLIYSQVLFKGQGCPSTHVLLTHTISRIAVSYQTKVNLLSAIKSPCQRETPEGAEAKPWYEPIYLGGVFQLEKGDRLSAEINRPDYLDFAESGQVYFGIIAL

B1: ESBA105 (scFv)
scFv: DIVMTQSPSSLSASVGDRVTLTCTASQSVSNDVVWYQQRPGKAPKLLIYSAFNRYTGVPSRFSGRGYGTDFTLTISSLQPEDVAVYYCQQDYNSPRTFGQGTKLEVKRGGGGSGGGGSGGGGSSGGGSQVQLVQSGAEVKKPGASVKVSCTASGYTFTHYGMNWVRQAPGKGLEWMGWINTYTGEPTYADKFKDRFTFSLETSASTVYMELTSLTSDDTAVYYCARERGDAMDYWGQGTLVTVSS
EC50 (read off the curve), L929 assay, ESBA105 stored 8 weeks at 37° C. (triangles, dashed line) [1]: ~10 ng/mL
Relative potency: EC50X/EC50ESBA105, KYM-1 cells [2]: 1 ratio EC50X/EC50ESBA105
Relative potency: EC50X/EC50ESBA105, L929 cells [2]: 1 ratio EC50X/EC50ESBA105

B2: ESBA105-QC15.2 (scFv)
scFv: DIVMTQSPSSLSASVGDRVTLTCTASQSVSNDVVWYQQRPGKAPKLLIYSAFNRYTGVPSRFSGRGYGTDFTLTISSLQPEDVAVYYCQQDYNSPRTFGQGTKLEVKRGGGGSGGGGSGGGGSSGGGSQVQLVQSGAEVKKPGASVKVSCTASGYTFTHYGMNWVRQAPGRGLEWMGWINTYTGEPTYADKFKDRITFSLETSASTVYMELTSLTSDDTAVYYCARERGDAMDYWGQGTLVTVSS
Relative potency: EC50X/EC50ESBA105, KYM-1 cells [2]: 1.5 ratio EC50X/EC50ESBA105
Relative potency: EC50X/EC50ESBA105, L929 cells [2]: 1.37 ratio EC50X/EC50ESBA105

B3: ESBA105-H_F68A (scFv)
scFv: DIVMTQSPSSLSASVGDRVTLTCTASQSVSNDVVWYQQRPGKAPKLLIYSAFNRYTGVPSRFSGRGYGTDFTLTISSLQPEDVAVYYCQQDYNSPRTFGQGTKLEVKRGGGGSGGGGSGGGGSSGGGSQVQLVQSGAEVKKPGASVKVSCTASGYTFTHYGMNWVRQAPGKGLEWMGWINTYTGEPTYADKFKDRATFSLETSASTVYMELTSLTSDDTAVYYCARERGDAMDYWGQGTLVTVSS
Relative potency: EC50X/EC50ESBA105, L929 cells [2]: 1.14 ratio EC50X/EC50ESBA105

Source: patent US8936785 (ESBATECH AN ALCON BIOMEDICAL RESEARCH UNIT, dated 2015)
